# According to patent US20240352075A1, “PACAP1-23 ANALOG GLYCOPEPTIDES AND METHODS FOR PRODUCING AND USING THE SAME” (priority 2021, published 2024):
# Primed or numbered codes have the meaning given here. Where no end group is shown, it is not given here. [ ]: non-standard residue; d: D form. Glc″ = glucose, glycoside on Ser; Lac′ = lactose, glycoside on Ser; Nva = CCC[C@H](N)C(=O)O
# T1: human VPAC1 (human, UniProt P32241 31-457)
# T1 sequence (looked up): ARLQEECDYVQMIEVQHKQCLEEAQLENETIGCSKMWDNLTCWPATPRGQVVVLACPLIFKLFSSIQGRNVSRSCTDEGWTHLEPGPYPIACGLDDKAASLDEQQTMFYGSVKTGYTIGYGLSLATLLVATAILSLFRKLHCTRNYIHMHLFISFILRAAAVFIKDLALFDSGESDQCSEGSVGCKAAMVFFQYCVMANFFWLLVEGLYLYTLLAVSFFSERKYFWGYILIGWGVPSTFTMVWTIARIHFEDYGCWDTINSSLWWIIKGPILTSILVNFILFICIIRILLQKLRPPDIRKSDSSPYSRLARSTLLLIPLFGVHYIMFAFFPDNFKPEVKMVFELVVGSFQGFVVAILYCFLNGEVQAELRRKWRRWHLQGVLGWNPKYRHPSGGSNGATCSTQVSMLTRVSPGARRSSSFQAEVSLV
# T2: human VPAC2 (human, UniProt P41587 24-438)
# T2 sequence (looked up): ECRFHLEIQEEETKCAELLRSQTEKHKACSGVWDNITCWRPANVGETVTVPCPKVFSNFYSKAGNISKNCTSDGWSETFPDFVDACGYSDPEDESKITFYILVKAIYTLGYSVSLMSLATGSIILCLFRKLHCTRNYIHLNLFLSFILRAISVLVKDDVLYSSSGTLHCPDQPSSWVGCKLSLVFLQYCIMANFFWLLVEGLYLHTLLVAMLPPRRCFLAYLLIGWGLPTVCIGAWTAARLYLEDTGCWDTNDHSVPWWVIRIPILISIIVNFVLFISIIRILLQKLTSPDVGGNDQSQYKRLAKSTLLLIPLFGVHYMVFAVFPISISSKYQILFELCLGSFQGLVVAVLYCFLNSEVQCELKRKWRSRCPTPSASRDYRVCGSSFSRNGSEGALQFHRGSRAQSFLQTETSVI
# T3: human PAC1 (human, UniProt P41586 21-468)
# T3 sequence (looked up): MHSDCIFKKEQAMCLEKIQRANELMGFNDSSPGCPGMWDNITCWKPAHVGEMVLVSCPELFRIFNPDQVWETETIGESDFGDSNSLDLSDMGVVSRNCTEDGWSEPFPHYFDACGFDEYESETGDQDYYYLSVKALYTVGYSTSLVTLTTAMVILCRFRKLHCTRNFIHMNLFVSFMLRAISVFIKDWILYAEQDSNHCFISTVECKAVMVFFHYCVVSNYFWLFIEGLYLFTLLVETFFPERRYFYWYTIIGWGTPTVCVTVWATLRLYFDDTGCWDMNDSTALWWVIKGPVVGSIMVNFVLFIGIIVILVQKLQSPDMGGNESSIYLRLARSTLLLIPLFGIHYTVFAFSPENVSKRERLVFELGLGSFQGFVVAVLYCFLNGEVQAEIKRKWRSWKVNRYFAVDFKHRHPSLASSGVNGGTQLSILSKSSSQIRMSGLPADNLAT
# Assays:
# Assay in all cases: cell-based or functional assay
# human VPAC1 [1] = molecular target: T1, human VPAC1
# human VPAC2 [2] = molecular target: T2, human VPAC2
# human VPAC1 [3] = molecular target: T1, human VPAC1; remark: listed apart in the source
# human PAC1 = molecular target: T3, human PAC1
# human VPAC1 [4] = molecular target: T1, human VPAC1; remark: listed apart in the source
# human VPAC2 [5] = molecular target: T2, human VPAC2; remark: listed apart in the source
# human VPAC2 [6] = molecular target: T2, human VPAC2; remark: listed apart in the source
selectivity for PAC1 versus VPAC1 (cAMP potency) (human VPAC1 [1]) [fold],selectivity for PAC1 versus VPAC2 (cAMP potency) (human VPAC2 [2]) [fold],cAMP stimulation EC50 (human VPAC1 [3]) [nM],cAMP stimulation EC50 (human PAC1) [nM],"cAMP stimulation EC50 (Table 1, differs from Table 3) (human VPAC1 [4]) [nM]","cAMP stimulation Emax (Table 1, differs from Table 3) (human VPAC1 [4]) [%]","cAMP stimulation Emax (Table 1, differs from Table 3) (human VPAC2 [5]) [%]",cAMP stimulation Emax (human VPAC1 [3]) [%],cAMP stimulation Emax (human PAC1) [%],cAMP stimulation EC50 (human VPAC2 [6]) [nM],cAMP stimulation Emax (human VPAC2 [6]) [%],Binder
~60,~900,37,0.64,,,,,,,,HSDGIFTDSYSRYRKQ[Nva]AVKKYLS(Glc″)-NH2 [CRA-DV-3023]
,,38,7,35,124,190,95,181,321,115,HSDAIFTDSYSRYRKQ[Nva]AVKKYLS(Lac′)-NH2 [CRA-TG-3026]
